Experimental data taken from the supplement of paper PMC5998384.

What was measured:
[1] = system: HeLa Kyoto; test: melting temperature (median over replicates), in situ; higher = more thermally stable
[2] = system: HeLa Kyoto; test: thermal stability score vs G1/S (z-score of summed log2 fold changes over temperatures); higher = more thermally stable than in G1/S
[3] = cell cycle stage: early G1 (4.5 h after nocodazole release)
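For melting temperature (median over replicates), in situ in this document: HeLa Kyoto cells synchronized by double thymidine or nocodazole block, proteins quantified by TMT10plex mass spectrometry, three independent biological replicates.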
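For thermal stability score vs G1/S (z-score of summed log2 fold changes over temperatures) in this document: synchronized HeLa Kyoto cells, proteins quantified by TMT10plex mass spectrometry, three biological replicates, mitosis taken 0.5 h after nocodazole release, G1/S directly after double thymidine block.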

UBE2V1, sequence (chain, as listed by the source): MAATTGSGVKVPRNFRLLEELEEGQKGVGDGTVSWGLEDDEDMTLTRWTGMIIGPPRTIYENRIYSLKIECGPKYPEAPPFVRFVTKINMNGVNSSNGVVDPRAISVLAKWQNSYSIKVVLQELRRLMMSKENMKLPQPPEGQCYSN

| Substance | melting temperature ([1]; cell cycle stage: G1/S) | melting temperature ([1]; cell cycle stage: mitosis) | thermal stability score [2, 3] | thermal stability score ([2]; cell cycle stage: mitosis) |
| --- | --- | --- | --- | --- |
| ITM2B | 55.2 °C | 54.7 °C | 5.19 | 0.613 |
| MAAACGPGAAGYCLLLGLHLFLLTAGPALGWNDPDRMLLRDVKALTLHYDRYTTSRRLDPIPQLKCVGGTAGCDSYTPKVIQCQNKGWDGYDVQWECKTDLDIAYKFGKTVVSCEGYESSEDQYVLRGSCGLEYNLDYTELGLQKLKESGKQHGFASFSDYYYKWSSADSCNMSGLITIVVLLGIAFVVYKLFLSDGQYSPPPYSEYPPFSHRYQRFTNSAGPPPPGFKSEFTGPQNTGHGATSGFGSAFTGQQGYENSGPGFWTGLGTGGILGYLFGSNRAATPFSDSWYYPSYPPSYPGTWNRAYSPLHGGSGSYSVCSNSDTKTRTASGYGGTRRR [SARAF] | 52 °C | 53.3 °C | -0.125 | 0.434 |
| MAARRRRSTGGGRARALNESKRVNNGNTAPEDSSPAKKTRRCQRQESKKMPVAGGKANKDRTEDKQDGMPGRSWASKRVSESVKALLLKGKAPVDPECTAKVGKAHVYCEGNDVYDVMLNQTNLQFNNNKYYLIQLLEDDAQRNFSVWMRWGRVGKMGQHSLVACSGNLNKAKEIFQKKFLDKTKNNWEDREKFEKVPGKYDMLQMDYATNTQDEEETKKEESLKSPLKPESQLDLRVQELIKLICNVQAMEEMMMEMKYNTKKAPLGKLTVAQIKAGYQSLKKIEDCIRAGQHGRALMEACNEFYTRIPHDFGLRTPPLIRTQKELSEKIQLLEALGDIEIAIKLVKTELQSPEHPLDQHYRNLHCALRPLDHESYEFKVISQYLQSTHAPTHSDYTMTLLDLFEVEKDGEKEAFREDLHNRMLLWHGSRMSNWVGILSHGLRIAPPEAPITGYMFGKGIYFADMSSKSANYCFASRLKNTGLLLLSEVALGQCNELLEANPKAEGLLQGKHSTKGLGKMAPSSAHFVTLNGSTVPLGPASDTGILNPDGYTLNYNEYIVYNPNQVRMRYLLKVQFNFLQLW [PARP2] | 47.1 °C | 50.5 °C | 1.04 | 1.69 |
| MGRLLRAARLPPLLSPLLLLLVGGAFLGACVAGSDEPGPEGLTSTSLLDLLLPTGLEPLDSEEPSETMGLGAGLGAPGSGFPSEENEESRILQPPQYFWEEEEELNDSSLDLGPTADYVFPDLTEKAGSIEDTSQAQELPNLPSPLPKMNLVEPPWHMPPREEEEEEEEEEEREKEEVEKQEEEEEEELLPVNGSQEEAKPQVRDFSLTSSSQTPGATKSRHEDSGDQASSGVEVESSMGPSLLLPSVTPTTVTPGDQDSTSQEAEATVLPAAGLGVEFEAPQEASEEATAGAAGLSGQHEEVPALPSFPQTTAPSGAEHPDEDPLGSRTSASSPLAPGDMELTPSSATLGQEDLNQQLLEGQAAEAQSRIPWDSTQVICKDWSNLAGKNYIILNMTENIDCEVFRQHRGPQLLALVEEVLPRHGSGHHGAWHISLSKPSEKEQHLLMTLVGEQGVVPTQDVLSMLGDIRRSLEEIGIQNYSTTSSCQARASQVRSDYGTLFVVLVVIGAICIIIIALGLLYNCWQRRLPKLKHVSHGEELRFVENGCHDNPTLDVASDSQSEMQEKHPSLNGGGALNGPGSWGALMGGKRDPEDSDVFEEDTHL [PODXL2] | 54 °C |  |  |  |
| MLGSRAAGFARGLRAVALAWLPGWRGRSFALARAAGAPHGGDLQPPACPEPRGRQLSLSAAAVVDSAPRPLQPYLRLMRLDKPIGTWLLYLPCTWSIGLAAEPGCFPDWYMLSLFGTGAILMRGAGCTINDMWDQDYDKKVTRTANRPIAAGDISTFQSFVFLGGQLTLALGVLLCLNYYSIALGAGSLLLVITYPLMKRISYWPQLALGLTFNWGALLGWSAIKGSCDPSVCLPLYFSGVMWTLIYDTIYAHQDKRDDVLIGLKSTALRFGENTKPWLSGFSVAMLGALSLVGVNSGQTAPYYAALGAVGAHLTHQIYTLDIHRPEDCWNKFISNRTLGLIVFLGIVLGNLWKEKKTDKTKKGIENKIEN [COQ2] | 55.1 °C |  |  |  |
| MLLATLLLLLLGGALAHPDRIIFPNHACEDPPAVLLEVQGTLQRPLVRDSRTSPANCTWLILGSKEQTVTIRFQKLHLACGSERLTLRSPLQPLISLCEAPPSPLQLPGGNVTITYSYAGARAPMGQGFLLSYSQDWLMCLQEEFQCLNHRCVSAVQRCDGVDACGDGSDEAGCSSDPFPGLTPRPVPSLPCNVTLEDFYGVFSSPGYTHLASVSHPQSCHWLLDPHDGRRLAVRFTALDLGFGDAVHVYDGPGPPESSRLLRSLTHFSNGKAVTVETLSGQAVVSYHTVAWSNGRGFNATYHVRGYCLPWDRPCGLGSGLGAGEGLGERCYSEAQRCDGSWDCADGTDEEDCPGCPPGHFPCGAAGTSGATACYLPADRCNYQTFCADGADERRCRHCQPGNFRCRDEKCVYETWVCDGQPDCADGSDEWDCSYVLPRKVITAAVIGSLVCGLLLVIALGCTCKLYAIRTQEYSIFAPLSRMEAEIVQQQAPPSYGQLIAQGAIPPVEDFPTENPNDNSVLGNLRSLLQILRQDMTPGGGPGARRRQRGRLMRRLVRRLRRWGLLPRTNTPARASEARSQVTPSAAPLEALDGGTGPAREGGAVGGQDGEQAPPLPIKAPLPSASTSPAPTTVPEAPGPLPSLPLEPSLLSGVVQALRGRLLPSLGPPGPTRSPPGPHTAVLALEDEDDVLLVPLAEPGVWVAEAEDEPLLT [LRP10] | 54.7 °C |  |  |  |
| MNQENPPPYPGPGPTAPYPPYPPQPMGPGPMGGPYPPPQGYPYQGYPQYGWQGGPQEPPKTTVYVVEDQRRDELGPSTCLTACWTALCCCCLWDMLT [CYSTM1] | 59 °C | 52.8 °C |  |  |
| MQPPPPGPLGDCLRDWEDLQQDFQNIQETHRLYRLKLEELTKLQNNCTSSITRQKKRLQELALALKKCKPSLPAEAEGAAQELENQMKERQGLFFDMEAYLPKKNGLYLSLVLGNVNVTLLSKQAKFAYKDEYEKFKLYLTIILILISFTCRFLLNSRVTDAAFNFLLVWYYCTLTIRESILINNGSRIKGWWVFHHYVSTFLSGVMLTWPDGLMYQKFRNQFLSFSMYQSFVQFLQYYYQSGCLYRLRALGERHTMDLTVEGFQSWMWRGLTFLLPFLFFGHFWQLFNALTLFNLAQDPQCKEWQVLMCGFPFLLLFLGNFFTTLRVVHHKFHSQRHGSKKD [TMEM120A] | 54.2 °C | 53.4 °C |  |  |
| MQPPPPGPLGDCLRDWEDLQQDFQNIQETHRLYRLKLEELTKLQNNCTSSITRQKKRLQELALALKKCKPSLPAEAEGAAQELENQMKERQGLFFDMEAYLPKKNGLYLSLVLGNVNVTLLSKQAKFAYKDEYEKFKLYLTIILILISFTCRFLLNSRVTDAAFNFLLVWYYCTLTIRESILINNGSRIKGWWVFHHYVSTFLSGVMLTWPDGLMYQKFRNQFLSFSMYQSFVQFLQYYYQSGCLYRLRALGERHTMDLTVEGFQSWMWRGLTFLLPFLFFGHFWQLFNALTLFNLAQDPQCKEWQVLMCGFPFLLLFLGNFFTTLRVVHHKFHSQRHGSKKD [TMPIT] | 54.2 °C | 53.4 °C |  |  |
| MRRAGLGEGVPPGNYGNYGYANSGYSACEEENERLTESLRSKVTAIKSLSIEIGHEVKTQNKLLAEMDSQFDSTTGFLGKTMGKLKILSRGSQTKLLCYMMLFSLFVFFIIYWIIKLR [BET1] | 54.7 °C | 54.9 °C |  |  |
| MSPLSAARAALRVYAVGAAVILAQLLRRCRGGFLEPVFPPRPDRVAIVTGGTDGIGYSTAKHLARLGMHVIIAGNNDSKAKQVVSKIKEETLNDKVEFLYCDLASMTSIRQFVQKFKMKKIPLHVLINNAGVMMVPQRKTRDGFEEHFGLNYLGHFLLTNLLLDTLKESGSPGHSARVVTVSSATHYVAELNMDDLQSSACYSPHAAYAQSKLALVLFTYHLQRLLAAEGSHVTANVVDPGVVNTDVYKHVFWATRLAKKLLGWLLFKTPDEGAWTSIYAAVTPELEGVGGHYLYNEKETKSLHVTYNQKLQQQLWSKSCEMTGVLDVTL [DHRSX] |  | 52.9 °C |  |  |
| MSRFFTTGSDSESESSLSGEELVTKPVGGNYGKQPLLLSEDEEDTKRVVRSAKDKRFEELTNLIRTIRNAMKIRDVTKCLEEFELLGKAYGKAKSIVDKEGVPRFYIRILADLEDYLNELWEDKEGKKKMNKNNAKALSTLRQKIRKYNRDFESHITSYKQNPEQSADEDAEKNEEDSEGSSDEDEDEDGVSAATFLKKKSEAPSGESRKFLKKMDDEDEDSEDSEDDEDWDTGSTSSDSDSEEEEGKQTALASRFLKKAPTTDEDKKAAEKKREDKAKKKHDRKSKRLDEEEEEDNEGGEWERVRGGVPLVKEKPKMFAKGTEITHAVVIKKLNEILQARGKKGTDRAAQIELLQLLVQIAAENNLGEGVIVKIKFNIIASLYDYNPNLATYMKPEMWGKCLDCINELMDILFANPNIFVGENILEESENLHNADQPLRVRGCILTLVERMDEEFTKIMQNTDPHSQEYVEHLKDEAQVCAIIERVQRYLEEKGTTEEVCRIYLLRILHTYYKFDYKAHQRQLTPPEGSSKSEQDQAENEGEDSAVLMERLCKYIYAKDRTDRIRTCAILCHIYHHALHSRWYQARDLMLMSHLQDNIQHADPPVQILYNRTMVQLGICAFRQGLTKDAHNALLDIQSSGRAKELLGQGLLLRSLQERNQEQEKVERRRQVPFHLHINLELLECVYLVSAMLLEIPYMAAHESDARRRMISKQFHHQLRVGERQPLLGPPESMREHVVAASKAMKMGDWKTCHSFIINEKMNGKVWDLFPEADKVRTMLVRKIQEESLRTYLFTYSSVYDSISMETLSDMFELDLPTVHSIISKMIINEELMASLDQPTQTVVMHRTEPTAQQNLALQLAEKLGSLVENNERVFDHKQGTYGGYFRDQKDGYRKNEGYMRRGGYRQQQSQTAY [EIF3CL] | 49 °C | 48.9 °C |  |  |
| MSSKRTKTKTKKRPQRATSNVFAMFDQSQIQEFKEAFNMIDQNRDGFIDKEDLHDMLASLGKNPTDEYLDAMMNEAPGPINFTMFLTMFGEKLNGTDPEDVIRNAFACFDEEATGTIQEDYLRELLTTMGDRFTDEEVDELYREAPIDKKGNFNYIEFTRILKHGAKDKDD [MYL12A] | 54 °C | 52.7 °C |  |  |
| MSTRKRRGGAINSRQAQKRTREATSTPEISLEAEPIELVETAGDEIVDLTCESLEPVVVDLTHNDSVVIVDERRRPRRNARRLPQDHADSCVVSSDDEELSRDRDVYVTTHTPRNARDEGATGLRPSGTVSCPICMDGYSEIVQNGRLIVSTECGHVFCSQCLRDSLKNANTCPTCRKKINHKRYHPIYI [RNF4] | 53.2 °C |  |  |  |
| MTVKTEAAKGTLTYSRMRGMVAILIAFMKQRRMGLNDFIQKIANNSYACKHPEVQSILKISQPQEPELMNANPSPPPSPSQQINLGPSSNPHAKPSDFHFLKVIGKGSFGKVLLARHKAEEVFYAVKVLQKKAILKKKEEKHIMSERNVLLKNVKHPFLVGLHFSFQTADKLYFVLDYINGGELFYHLQRERCFLEPRARFYAAEIASALGYLHSLNIVYRDLKPENILLDSQGHIVLTDFGLCKENIEHNSTTSTFCGTPEYLAPEVLHKQPYDRTVDWWCLGAVLYEMLYGLPPFYSRNTAEMYDNILNKPLQLKPNITNSARHLLEGLLQKDRTKRLGAKDDFMEIKSHVFFSLINWDDLINKKITPPFNPNVSGPNDLRHFDPEFTEEPVPNSIGKSPDSVLVTASVKEAAEAFLGFSYAPPTDSFL [SGK1] |  | 48.3 °C |  |  |
| MVGGGGVGGGLLENANPLIYQRSGERPVTAGEEDEQVPDSIDAREIFDLIRSINDPEHPLTLEELNVVEQVRVQVSDPESTVAVAFTPTIPHCSMATLIGLSIKVKLLRSLPQRFKMDVHITPGTHASEHAVNKQLADKERVAAALENTHLLEVVNQCLSARS [FAM96B] | 50.3 °C | 52.7 °C |  |  |
| TPK1 | 56.3 °C | 55.6 °C |  |  |
| UBE2V1 | 54.2 °C |  |  |  |
